Results: patent US20250320292A1

Target: COL4A3 (immobilised as Fc-rat COL4A3 or COL4A3-His)
Experiment: BLI (Octet RED96); COL4A3 immobilised (Fc-rat COL4A3 on anti-human Fc or COL4A3-His on HIS1K, not said which), test article titrated from 50 nM

Kd: 23 µM
B1: CDAB14 (scFv)
chain: DCGPPPDIPNARPILGRHSKFAEQSKVAYSCNNGFKQVPDKSNIVVCLENGQWSSHETFCEKSCVAPERLSFASLKKEYLNMNFFPVGTIVEYECRPGFRKQPPLPGKATCLEDLVWSPVAQFCKKKSCPNPKDLDNGHINIPTGILFGSEINFSCNPGYRLVGVSSTFCSVTGNTVDWDDEFPVCTEIHCPEPPKINNGIMRGESDSYTYSQVVTYSCDKGFILVGNASIYCTVSKSDVGQWSSPPPRCIEKSKVPTKKPTINVPSTGTPSTPQKPTTESVPNPGDQPTPQKPSTVKVSATQHVPVTKTTVRHPIRTSTDKGEPNTGGGGGSGGGGSGGGGSGGGGSQVQLLESGPGLVKPSGTLSLTCTVSGGSISSTNWWTWVRQSPGTGLEWIGHIYHSGSTDYNPSLKSRVTISIDKSKNQFSLKMTSVTAADTAVYYCACAAQYHWKGLDPWGHGTLVTVSSGGGGGSGGGGSGGGGSDIVMTQTPLSLSVTPGQPASISCMSSQSLLHSDGKTYLYWYLQKPGQPPQLLIYEVSNRFSGVPDRFSGSGSGTDFTLKISRVEAEDVGIYYCMQSIQLPITFGQGTRLEIKHHHHHH
